# Test results as given in patent US20240294651A1 (KYMAB, published 2024).
# Changes are numbered by the printed parent chain.
# B1: CL-83083 (antibody, human IgG4 S228P, lambda)
# heavy: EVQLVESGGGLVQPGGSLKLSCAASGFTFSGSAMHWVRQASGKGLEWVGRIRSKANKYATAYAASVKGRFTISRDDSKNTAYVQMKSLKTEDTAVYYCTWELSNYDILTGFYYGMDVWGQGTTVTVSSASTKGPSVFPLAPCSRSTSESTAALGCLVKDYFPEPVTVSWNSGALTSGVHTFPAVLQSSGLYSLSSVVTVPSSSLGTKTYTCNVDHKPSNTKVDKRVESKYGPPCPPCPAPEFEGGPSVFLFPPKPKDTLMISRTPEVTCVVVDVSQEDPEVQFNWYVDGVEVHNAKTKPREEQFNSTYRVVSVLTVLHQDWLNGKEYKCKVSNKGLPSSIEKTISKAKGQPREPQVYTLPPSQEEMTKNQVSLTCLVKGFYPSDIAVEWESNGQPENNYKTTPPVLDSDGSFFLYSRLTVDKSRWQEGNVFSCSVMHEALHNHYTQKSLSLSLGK
# light: QAGLTQPPSVSKGLRQTATLTCTGNSNNVGNLGAAWLQQHQGHPPKLLSYRNNNRPSGISERFFASRSGNTASLTITGLQPEDEADYYCSAWDSSLSAWVFGGGTKLTVLGQPKAAPSVTLFPPSSEELQANKATLVCLISDFSPGAVTVAWKADSSPVKAGVETTTPSKQSNNKYAASSYLSLTPEQWKSHKSYSCQVTHEGSTVKKTVAPTECS
# notes: Tested in human IgG4-PE format; lambda light chain; also called CL-83083 (IgG4-PE format)
# B2: CL-83083-2 (antibody, human IgG4 S228P, lambda)
# heavy: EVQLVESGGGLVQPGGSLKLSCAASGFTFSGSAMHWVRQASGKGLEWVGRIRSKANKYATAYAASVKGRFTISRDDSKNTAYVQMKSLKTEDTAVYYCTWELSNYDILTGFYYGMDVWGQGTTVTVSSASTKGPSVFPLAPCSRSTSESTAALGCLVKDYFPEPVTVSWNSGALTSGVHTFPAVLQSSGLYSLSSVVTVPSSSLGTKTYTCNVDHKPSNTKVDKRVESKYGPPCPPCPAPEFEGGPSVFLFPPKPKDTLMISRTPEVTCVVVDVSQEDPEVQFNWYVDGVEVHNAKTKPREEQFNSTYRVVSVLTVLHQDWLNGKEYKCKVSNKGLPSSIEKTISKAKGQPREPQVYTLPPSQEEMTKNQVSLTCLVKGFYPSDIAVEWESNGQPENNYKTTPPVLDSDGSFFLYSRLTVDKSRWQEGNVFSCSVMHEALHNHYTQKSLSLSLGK
# light: B1 light with S144Y, K207E
# notes: Same variable domains as CL-83083, different lambda constant region; tested in human IgG4-PE format; also called CL-83083-2 (IgG4-PE format)
# B3: CL-82574 (antibody, human IgG4 S228P, kappa)
# heavy: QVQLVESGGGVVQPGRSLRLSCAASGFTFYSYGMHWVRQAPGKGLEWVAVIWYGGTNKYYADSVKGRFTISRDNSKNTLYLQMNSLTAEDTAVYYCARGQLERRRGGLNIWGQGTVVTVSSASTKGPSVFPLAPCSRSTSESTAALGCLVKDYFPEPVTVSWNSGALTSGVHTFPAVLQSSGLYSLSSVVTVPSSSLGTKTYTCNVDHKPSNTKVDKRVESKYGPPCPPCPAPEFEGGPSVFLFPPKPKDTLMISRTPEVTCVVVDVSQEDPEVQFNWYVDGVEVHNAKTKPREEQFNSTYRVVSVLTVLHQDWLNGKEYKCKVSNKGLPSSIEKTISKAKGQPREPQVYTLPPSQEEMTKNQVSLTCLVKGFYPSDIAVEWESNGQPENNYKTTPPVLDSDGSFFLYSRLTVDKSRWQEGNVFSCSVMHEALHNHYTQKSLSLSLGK
# light: DIQMTQSPSSLSASVGDRVTITCRASQGVRDDLGWYQQKPGKAPKRLIYAASSLQSGVPSRFSGSGSGTEFTLTISSLQPEDFATYYCLQHNSYPFTFGPGTKVDIKRTVAAPSVFIFPPSDEQLKSGTASVVCLLNNFYPREAKVQWKVDNALQSGNSQESVTEQDSKDSTYSLSSTLTLSKADYEKHKVYACEVTHQGLSSPVTKSFNRGEC
# notes: Tested in human IgG4-PE format; also called CL-82574 (IgG4-PE format)
# B4: CL-82458 (antibody, human IgG4 S228P, kappa, V domains shown)
# VH: EVQLVESGGDLVQPGGSLRLSCAASGFTFYSYAMNWVRQAPGKGLKWVSGISGSGDITYYADSVKGRFTISRDNSKNTLYLQMHSLRPEDTAIYYCAKGQLERRYYKYYGMDVWGQGTTVTVSS
# VL: DIQMTQSPSSLSASVGDRVTITCRANQGIRNDLGWYQQKPGKAPKRLIYGASSLKSGVPSRFSGSGSGTEFTLTISSLQPEDFATYYCLQQNSYPLTFGGGTKVEIKR
# notes: Tested in human IgG4-PE format; also called CL-82458 (IgG4-PE format)
# B5: CL-82658 (antibody, human IgG4 S228P, kappa, V domains shown)
# VH: QVQLVESGGGVVQPGRSLRLSCAASGFSFSSYGMHWVRQAPGKGLEWVAVISYDGSNKYYADSVKGRFTISRDNSKNTLYLQMNSLRGEDTAVYYCSKGSLTPRRGYYYSYGMDVWGQGTTVTVSS
# VL: B4 VL with N26S, G34S, G50A, K55Q, Q91H, S93G, L96F, G100P, E105D
# notes: Tested in human IgG4-PE format; also called CL-82658 (IgG4-PE format)
# Target: T1, human CXCR4 (cell-expressed) (human, UniProt P61073 1-352)
# T1 sequence (P61073 whole entry): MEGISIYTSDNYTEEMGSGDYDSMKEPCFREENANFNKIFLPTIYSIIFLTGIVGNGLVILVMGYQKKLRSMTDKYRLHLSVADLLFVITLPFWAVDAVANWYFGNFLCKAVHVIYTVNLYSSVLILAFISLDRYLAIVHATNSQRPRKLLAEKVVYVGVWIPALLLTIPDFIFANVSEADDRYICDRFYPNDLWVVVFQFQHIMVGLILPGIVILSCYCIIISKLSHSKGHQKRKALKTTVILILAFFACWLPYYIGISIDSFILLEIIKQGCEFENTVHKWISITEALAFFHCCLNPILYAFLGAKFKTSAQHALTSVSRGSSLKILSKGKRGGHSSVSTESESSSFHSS
# Experiment: cell-based or functional assay
Binder,"% Max Inhibition, beta-arrestin reporter assay, Tango CXCR4-bla U2OS cells","IC50, beta-arrestin reporter assay, Tango CXCR4-bla U2OS cells, 30 nM CXCL12"
B1,98.9%,0.43 nM
B2,96.9%,0.79 nM
B3,99.5%,0.14 nM
B4,102%,0.31 nM
B5,100%,0.35 nM

# Target: T2, cynomolgus CXCR4 (cynomolgus monkey, UniProt Q28474 1-352)
# T2 construct: also called cyno CXCR4; cynomolgus monkey CXCR4
# T2 sequence (Q28474 whole entry): as the sequence (P61073 whole entry) above, with M24I, N35H, K38R, R146K, N176S counted along it
# Experiment: flow cytometry on CHO-S cells expressing cynomolgus CXCR4
# Method: Cynomolgus monkey CXCR4 expressing CHO-S cells were plated at 100 uL/well of cells at 1 million of cells/mL (0.1 million of cells/well) into a 96 well V-bottom plate (Greiner). Plates were centrifuged at 300×g for 3 min at 4° C. and supernatant discarded. […] Primary antibody dilutions were added to cells (50 μL/well) and cell pellets resuspended by pipetting. Plates was incubated for 1 h at 4° C. 100 μL/well of PBS, was added and plates centrifuged at 300×g for 3 min at 4° C. and supernatant discarded. This step was repeated twice. […] Cells were resuspended by pipetting. Plates were incubated for 1 h at 4° C. 100 μL/well PBS, was added and plates centrifuged at 300×g for 3 min at 4° C. and supernatant discarded. This step was repeated twice. Finally, cells were resuspended in 100 μL/well of PBS and analysed on CytoFLEX (Beckman Coulter).
# Binding of antibodies to cynomolgus CXCR4 expressed on CHO-S cells was analysed by gating the main cell population using forward and side scatter (Flow Jo, Flow Jo LLC) to allow for doublet discrimination. […] EC₅₀ values were calculated by transforming the data and fitting a 4-parameter logistic regression curve to each antibody titration.
row,Binder,EC50
1,B1,11 nM
2,B3,3.5 nM
3,B4,2.2 nM
4,B5,4.2 nM

# Target: T3, terbium-labelled SNAP-CXCR4 on HEK-293 cells (Cisbio C1TT1CXCR4) (human, UniProt P61072 1-352 (Pan troglodytes entry), terbium label on the SNAP tag)
# T3 construct: Bought assay-ready cells; also called CXCR4 expressing cells; not shown: SNAP tag
# T3 sequence (P61072 whole entry): as the sequence (P61073 whole entry) above
# Experiment: TR-FRET (Tag-lite) competition with AlexaFluor 647-CXCL12 on terbium-labelled SNAP-CXCR4 HEK-293 cells
Binder,% Max Inhibition,IC50
B1,96%,1.74 nM
B2,97%,3.92 nM
B3,98%,0.63 nM
B4,99%,0.79 nM
B5,100%,1.04 nM

# Target: T1, human CXCR4 (cell-expressed)
# Experiment: cell-based or functional assay
# Remark: another data set of the same source
row,Binder,"IC50 of antibody in presence of 30 nM CXCL12, human T-cell transwell chemotaxis"
1,B1,0.35 not printed (nM assumed)
2,B3,0.21 not printed (nM assumed)
3,B4,0.26 not printed (nM assumed)
4,B5,0.18 not printed (nM assumed)

# Target: T1, human CXCR4 (cell-expressed)
# Experiment: cell-based or functional assay
# Remark: another data set of the same source
Binder,"% effect (remaining % of CXCL12 response), DMR assay, human T-cells","IC50, label-free DMR assay, isolated human T-cells, EC80 CXCL12"
B1,5.1%,3.58 nM
B2,4.4%,3.98 nM
B3,0.68%,2.09 nM
B4,2%,12.1 nM
B5,-0.6%,1.54 nM

# Target: T1, human CXCR4 (cell-expressed)
# Experiment: cell-based or functional assay
# Remark: another data set of the same source
Binder,"IC50 n = 1, Jurkat chemotaxis towards 30 nM CXCL12 (IncuCyte)","IC50 n = 2, Jurkat chemotaxis towards 30 nM CXCL12 (IncuCyte)","IC50 n = 3, Jurkat chemotaxis towards 30 nM CXCL12 (IncuCyte)","Mean IC50, Jurkat chemotaxis towards 30 nM CXCL12 (IncuCyte)"
B1,0.47 nM,0.43 nM,0.34 nM,0.41 nM
B3,0.32 nM,0.62 nM,0.63 nM,0.52 nM
B4,2.18 nM,3.43 nM,1.66 nM,2.42 nM
B5,0.22 nM,0.31 nM,0.21 nM,0.25 nM

# Target: T1, human CXCR4 (cell-expressed)
# Experiment: cell-based or functional assay
# Remark: another data set of the same source
Binder,"% of max migration at 120 nM Ab, primary naïve T-cell trans-well migration","IC50, primary naïve T-cell trans-well migration"
B1,25.7%,1.55 nM
B3,5.44%,0.95 nM
B4,17.6%,–
B5,-2.08%,0.99 nM

# Target: T4, human CXCR7 (human, UniProt P25106 1-362)
# T4 construct: Expressed on CHO-S cells
# T4 sequence (P25106 whole entry): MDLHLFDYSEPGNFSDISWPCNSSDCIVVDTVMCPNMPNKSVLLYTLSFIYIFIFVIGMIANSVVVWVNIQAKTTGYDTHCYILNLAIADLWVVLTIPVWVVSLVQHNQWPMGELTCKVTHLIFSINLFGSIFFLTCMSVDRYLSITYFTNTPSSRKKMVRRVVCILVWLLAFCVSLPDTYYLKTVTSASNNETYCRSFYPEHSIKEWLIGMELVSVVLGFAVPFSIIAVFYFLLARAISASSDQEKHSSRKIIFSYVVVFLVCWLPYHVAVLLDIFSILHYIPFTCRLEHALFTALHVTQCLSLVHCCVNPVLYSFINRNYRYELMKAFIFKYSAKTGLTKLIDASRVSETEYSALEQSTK
# Experiment: flow cytometry on CHO-S cells expressing human CXCR7, Alexa Fluor 647 secondary antibody, GeoMean (647 nm)
# Method: CXCR7 expressing CHO-S cells were plated at 100 μL/well of cells at 1 million of cells/mL (0.1 million of cells/well) into a 96 well V-bottom plate (Greiner). Plates were centrifuged at 300×g for 3 min at 4° C. and supernatant discarded. […] Primary antibody dilutions were added to cells (100 μL/well) and cell pellets resuspended by pipetting. Plate was incubated for 1 h at 4° C. 100 μL/well of PBS, was added and plates centrifuged at 300×g for 3 min at 4° C. and supernatant discarded. This step was repeated twice. […] Cells were resuspended by pipetting. Plate was incubated for 1 h at 4° C. 100 μL/well of PBS, was added and plates centrifuged at 300×g for 3 min at 4° C. and supernatant discarded. This step was repeated twice. Finally, cells were resuspended in 100 μL/well of PBS and analysed on CytoFLEX (Beckman Coulter).
# Binding of antibodies to CXCR7 expressed on CHO-S cells was analysed by gating the main cell population using forward and side scatter (Flow Jo, Flow Jo LLC) to allow for doublet discrimination.
row,Binder,binding result
1,B1,no binding (tested: log(M) about -6.9 (about 1.2e-7 M))
2,B3,no binding (tested: log(M) about -6.9 (about 1.2e-7 M))
3,B4,no binding (tested: log(M) about -6.9 (about 1.2e-7 M))
4,B5,no binding (tested: log(M) about -6.9 (about 1.2e-7 M))

# Target: T5, CXCR4 StaR nanodiscs
# T5 construct: Purified receptor in lipid-protein nanodiscs; also called StaR CXCR4; thermostabilised CXCR4
# Experiment: SPR (Biacore T200), IgG4-PE antibody captured by anti-IgG on CM5, CXCR4 StaR nanodiscs at 250 nM as analyte, 25 C, 1:1 model; N = 1
# Method: Anti-IgG antibodies were immobilised on chip CM5 (GE Healthcare) by amine coupling. […] A channel with no anti-CXCR4 antibodies captured was used as a reference. […] The blank-subtracted sensorgrams were fitted to the 1:1 interaction model using the Biacore T200 evaluation software. The assay was run at 25° C. using 0.01 M HEPES pH 7.4, 0.15 M NaCl as running buffer.
Binder,Kd,koff,kon
B1,7.1 nM,0.00097 s⁻¹,140000 M⁻¹ s⁻¹
B3,8 nM,0.00088 s⁻¹,110000 M⁻¹ s⁻¹
B4,7.5 nM,0.00046 s⁻¹,61000 M⁻¹ s⁻¹
B5,9.6 nM,0.0005 s⁻¹,52000 M⁻¹ s⁻¹

# Target: T1, human CXCR4 (cell-expressed)
# Experiment: cell-based or functional assay
# Remark: another data set of the same source
row,Binder,"Max Signal (Total Overlap Object Area), internalisation on Ramos cells, live-cell imaging"
1,B1,9670 µm^2 per image
2,B3,18100 µm^2 per image
3,B4,20800 µm^2 per image
4,B5,18900 µm^2 per image

# Target: T1, human CXCR4 (cell-expressed)
# Experiment: cell-based or functional assay
# Remark: another data set of the same source
Binder,"% Max Inhibition, cAMP HTRF assay, CXCR4 BacMam HEK-293 cells","IC50, cAMP HTRF assay, CXCR4 BacMam HEK-293 cells, 5.5 nM CXCL12"
B1,80%,36 nM
B2,93%,44 nM
B3,96%,21 nM
B4,88%,40 nM
B5,98%,23 nM

# Target: T2, cynomolgus CXCR4
# Experiment: cell-based or functional assay
Binder,"% Maximum Inhibition, cAMP HTRF assay, cyno CXCR4 BacMam HEK-293 cells","IC50, cAMP HTRF assay, cyno CXCR4 BacMam HEK-293 cells"
B1,84%,11.8 nM
B3,90%,1.2 nM
B4,78%,2 nM
B5,80%,1 nM
